Molecular target: NFAT5 (TonEBP) (UniProt O94916)
Assay: co-immunoprecipitation, Western blot
Settings: reference: EZH2 wild type; sites S21

## EZH2 (from UniProt Q15910) EZH2 S21A
  binding against the reference: weaker
